Earlier results as cited in PMC3381941.
Read-outs that look alike come from different tables or passages of the source.

Assays:
[1] = biological target: Mtf1 (Saccharomyces cerevisiae) (UniProt P14908); test: protein-protein crosslinking
[2] = biological target: Mtf1 (Saccharomyces cerevisiae) (UniProt P14908); test: protein-protein crosslinking; remark: listed apart in the source

Chain of UniProt P14908 (P14908 2-341): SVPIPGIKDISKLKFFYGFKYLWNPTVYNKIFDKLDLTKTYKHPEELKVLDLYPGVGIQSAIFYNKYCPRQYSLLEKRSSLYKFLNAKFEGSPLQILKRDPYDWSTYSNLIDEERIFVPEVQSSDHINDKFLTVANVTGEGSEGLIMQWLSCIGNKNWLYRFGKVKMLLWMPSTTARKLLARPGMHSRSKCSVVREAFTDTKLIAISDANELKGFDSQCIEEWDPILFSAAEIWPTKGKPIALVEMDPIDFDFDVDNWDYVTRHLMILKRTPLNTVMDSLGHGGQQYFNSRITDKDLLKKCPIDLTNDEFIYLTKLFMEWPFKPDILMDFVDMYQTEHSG

Rpo41 (from UniProt P13433)
Kd [1]: 0.4 µM | Kd [2]: 0.6 µM
